Consider 1 substance from publication PMC3660092.

The assay concerns the target YFP-IP3R type 1 (UniProt P11881). Kind of assay: FRET or BRET.
Sequence of UniProt P11881 (P11881 whole entry): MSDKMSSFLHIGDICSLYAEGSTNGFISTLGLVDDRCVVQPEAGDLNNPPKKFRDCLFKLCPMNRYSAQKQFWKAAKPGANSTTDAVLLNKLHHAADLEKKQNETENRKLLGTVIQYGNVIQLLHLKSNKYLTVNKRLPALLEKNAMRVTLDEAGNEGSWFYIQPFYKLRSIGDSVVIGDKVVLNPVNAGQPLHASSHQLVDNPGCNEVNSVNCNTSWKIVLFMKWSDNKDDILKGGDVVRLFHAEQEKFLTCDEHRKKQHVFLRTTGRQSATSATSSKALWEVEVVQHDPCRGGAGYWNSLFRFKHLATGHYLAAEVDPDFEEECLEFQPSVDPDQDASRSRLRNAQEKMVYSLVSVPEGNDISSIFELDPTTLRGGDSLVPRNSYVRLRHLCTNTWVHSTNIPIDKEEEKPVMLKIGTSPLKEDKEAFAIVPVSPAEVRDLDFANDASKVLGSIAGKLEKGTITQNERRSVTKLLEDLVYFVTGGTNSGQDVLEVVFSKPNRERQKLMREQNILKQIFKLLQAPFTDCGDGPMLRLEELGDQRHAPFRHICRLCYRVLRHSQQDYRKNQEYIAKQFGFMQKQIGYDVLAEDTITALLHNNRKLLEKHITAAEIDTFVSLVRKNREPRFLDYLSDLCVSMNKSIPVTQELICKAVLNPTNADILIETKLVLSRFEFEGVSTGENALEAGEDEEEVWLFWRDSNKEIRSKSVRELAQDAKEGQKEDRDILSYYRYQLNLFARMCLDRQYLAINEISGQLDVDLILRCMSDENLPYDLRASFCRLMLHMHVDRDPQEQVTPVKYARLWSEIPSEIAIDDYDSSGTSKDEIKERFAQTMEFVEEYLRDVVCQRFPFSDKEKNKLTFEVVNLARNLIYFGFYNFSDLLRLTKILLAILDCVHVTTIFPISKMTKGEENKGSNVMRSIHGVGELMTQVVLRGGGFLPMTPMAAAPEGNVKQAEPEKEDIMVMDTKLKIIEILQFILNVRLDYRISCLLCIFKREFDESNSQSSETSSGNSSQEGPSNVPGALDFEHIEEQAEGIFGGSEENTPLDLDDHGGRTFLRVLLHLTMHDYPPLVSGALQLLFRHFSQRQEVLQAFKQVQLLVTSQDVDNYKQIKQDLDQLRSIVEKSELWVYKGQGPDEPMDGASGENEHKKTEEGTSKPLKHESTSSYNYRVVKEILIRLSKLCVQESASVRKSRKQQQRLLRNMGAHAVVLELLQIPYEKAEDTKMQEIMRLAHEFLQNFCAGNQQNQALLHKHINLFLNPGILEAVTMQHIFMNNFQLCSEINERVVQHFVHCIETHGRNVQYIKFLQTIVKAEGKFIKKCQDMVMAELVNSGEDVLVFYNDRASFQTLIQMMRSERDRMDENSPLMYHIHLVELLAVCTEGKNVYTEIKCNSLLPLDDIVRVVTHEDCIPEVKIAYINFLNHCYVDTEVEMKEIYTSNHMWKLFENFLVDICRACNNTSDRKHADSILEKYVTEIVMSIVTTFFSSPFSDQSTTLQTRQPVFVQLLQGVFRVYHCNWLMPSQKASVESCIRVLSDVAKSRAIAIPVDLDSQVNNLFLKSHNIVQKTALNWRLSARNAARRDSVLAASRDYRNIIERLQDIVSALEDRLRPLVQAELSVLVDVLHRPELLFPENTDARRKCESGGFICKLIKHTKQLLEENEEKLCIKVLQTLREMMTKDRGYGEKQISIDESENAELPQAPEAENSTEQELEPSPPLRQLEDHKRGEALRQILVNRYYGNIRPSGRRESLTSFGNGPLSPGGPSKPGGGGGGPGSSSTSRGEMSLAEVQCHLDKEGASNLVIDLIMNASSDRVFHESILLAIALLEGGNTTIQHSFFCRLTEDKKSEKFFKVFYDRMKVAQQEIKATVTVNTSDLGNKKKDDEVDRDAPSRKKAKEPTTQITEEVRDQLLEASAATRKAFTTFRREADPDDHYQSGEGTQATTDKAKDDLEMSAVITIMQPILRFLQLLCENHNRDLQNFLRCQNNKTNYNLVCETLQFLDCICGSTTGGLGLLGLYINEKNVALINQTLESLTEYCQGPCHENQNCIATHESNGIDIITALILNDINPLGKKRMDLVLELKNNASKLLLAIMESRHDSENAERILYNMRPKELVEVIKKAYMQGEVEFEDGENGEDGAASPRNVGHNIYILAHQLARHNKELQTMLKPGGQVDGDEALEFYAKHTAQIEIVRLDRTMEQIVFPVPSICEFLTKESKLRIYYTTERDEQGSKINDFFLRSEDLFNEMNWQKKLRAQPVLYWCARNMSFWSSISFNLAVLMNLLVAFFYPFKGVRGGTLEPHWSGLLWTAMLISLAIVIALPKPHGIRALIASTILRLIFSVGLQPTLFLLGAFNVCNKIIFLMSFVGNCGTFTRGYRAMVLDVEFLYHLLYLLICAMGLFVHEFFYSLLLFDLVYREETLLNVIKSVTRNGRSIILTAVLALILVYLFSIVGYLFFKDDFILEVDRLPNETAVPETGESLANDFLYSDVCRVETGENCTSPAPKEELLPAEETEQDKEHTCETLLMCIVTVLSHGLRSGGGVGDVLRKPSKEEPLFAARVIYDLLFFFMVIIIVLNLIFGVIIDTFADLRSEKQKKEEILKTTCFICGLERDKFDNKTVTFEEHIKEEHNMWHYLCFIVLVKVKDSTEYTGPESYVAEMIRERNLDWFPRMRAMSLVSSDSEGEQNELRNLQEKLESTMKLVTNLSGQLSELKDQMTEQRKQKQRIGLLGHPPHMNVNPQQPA

“CFP-Bcl-2 (from UniProt P10415 1-239) (natural protein)” yielded an increase of the CFP signal after YFP bleaching (FRET efficiency) of 28%.
